How the values were obtained:
PleC PAS AB-HK = target: T1, PleC PAS AB-HK (Caulobacter crescentus); assay: cell-based or functional assay
T1 sequence (P37894 whole entry, looked up): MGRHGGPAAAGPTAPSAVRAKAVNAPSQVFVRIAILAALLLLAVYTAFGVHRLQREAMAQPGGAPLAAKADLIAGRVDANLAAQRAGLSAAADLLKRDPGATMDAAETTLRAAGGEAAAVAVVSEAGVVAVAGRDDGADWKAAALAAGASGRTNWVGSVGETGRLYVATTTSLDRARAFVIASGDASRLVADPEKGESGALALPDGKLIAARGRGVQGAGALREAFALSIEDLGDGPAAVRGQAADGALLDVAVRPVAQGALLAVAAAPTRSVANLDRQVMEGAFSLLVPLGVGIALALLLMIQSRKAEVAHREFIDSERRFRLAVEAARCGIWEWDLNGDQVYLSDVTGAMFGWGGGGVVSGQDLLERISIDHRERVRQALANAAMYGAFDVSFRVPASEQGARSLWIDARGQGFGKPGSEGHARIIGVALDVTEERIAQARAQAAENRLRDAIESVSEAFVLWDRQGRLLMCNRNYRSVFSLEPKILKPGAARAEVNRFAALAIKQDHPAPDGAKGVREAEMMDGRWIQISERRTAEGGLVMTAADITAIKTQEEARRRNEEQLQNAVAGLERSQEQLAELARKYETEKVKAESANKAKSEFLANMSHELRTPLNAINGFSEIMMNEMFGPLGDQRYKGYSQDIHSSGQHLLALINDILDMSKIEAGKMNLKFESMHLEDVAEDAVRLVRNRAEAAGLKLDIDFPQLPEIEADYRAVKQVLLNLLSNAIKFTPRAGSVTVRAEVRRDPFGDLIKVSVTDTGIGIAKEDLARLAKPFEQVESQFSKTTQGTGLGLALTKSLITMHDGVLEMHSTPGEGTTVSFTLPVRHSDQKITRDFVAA

[1] = target: the molecule itself; assay: SEC; 3.2 mg/ml His-PodJ(1–635), Superdex 200 10/300 GL, 50 mM Tris-HCl pH 8.0, 300 mM KCl

- IC50 of the repression of the ADP production rate of 7.5 μM PleC PAS AB-HK with 1000 μM ATP (coupled enzyme assay), PodJ(1–635) 0-7.5 μM (PleC PAS AB-HK): 1860 nM
B1: His-PodJ(1–635) (domain or fragment, Caulobacter crescentus, UniProt Q9ZG88 1-635, looked up)
chain: MTAASPWSVKGIDPKAREVAKDLARRSGMTLGEWLNRMIIEGDGQTADPRLAGDDVPNRAYLEIVKDDAPPRIEIAEHPADEVGRVALALDRLTQRIEAAEGRNAAAITGIDHSVRDALTRLGASEREQIAVAARFEGAVDELKTEQARATERLRRIESEAAGPRSAEALRALEGALGKVAGHLYEGEARTREAIATLEAKLNQQSSGDPSALVEAVVARLGERLEAAETRTSDALRELGASFQALDQRLGAVETANPATGVQEGLDSLAATLTQKMEAARLEMAAKLRESADGRFDRMERKLGEMAAHVQAAEQRSAQAIERMGREIVGVADAFNRRVHAAESRNASAIEQVGGEVARIAASVEHKLNRADSVQAQALEKLGGEIARITEKLAERIGSAERRNALAIDDVGEQVARVTERLNQRHERSSQELVDRIRQSEERTLRMLEEAREKIDSRLSEAQRKLEAAPPSPPPAQAPAPVATAQRPVPPAASPFEDNYFSQAASFSTSEDEADAFDAPPAPARSFEVAEFPAAEPEEPAFAHDDYAIADGFEPESPRYEVEPEVSDFAPAEPSRPMSTRDIIEQARAAARAAAASEGKGGKAKSAKKEKASKASGSLFSGFGGFSTKKSKARL
notes: PodJ, Caulobacter crescentus, cytoplasmic domains without the transmembrane tether, residues 1–635; also called cytoplasmic portion of PodJ; source: E. coli Rosetta (DE3), plasmid pwz091, purified (HisTrap HP)
- binding result [1]: binds

Source: article PMC8980812, “Regulation of the activity of the bacterial histidine kinase PleC by the scaffolding protein PodJ” (The Journal of Biological Chemistry, 2022)
